Laboratory results from patent publication US7919276.
Numbering of substitutions follows the chain as printed. Like-named read-outs stand apart in the source and are kept apart here. Ends that are not written are not given here.

B1: P/CAF bromodomain Tyr802Ala mutant, Q92831 719-832 (protein)
chain: SKEPRDPDQLYSTLKSILQQVKSHQSAWPFMEPVKRTEAPGYYEVIRFPMDLKTMSERLKNRYYVSKKLFMADLQRVFTNCKEANAAESEYYKCANILEKFFFSKIKEAGLIDK
modifications: here or on the partner: acetyl-lysine (AcK) at Lys8
B2: P/CAF bromodomain Val752Ala mutant, Q92831 719-832 (protein)
chain: B1 chain with V34A, A84Y
modifications: here or on the partner: acetyl-lysine (AcK) at Lys8
B3: P/CAF bromodomain (residues 719-832 of human p300/CBP-associated factor), wild-type (other)
chain: B1 chain with A84Y
notes: Expressed in E. coli with an N-terminal poly-His tag that thrombin removed; residues left over from the vector are not described; 15N-labelled for the NMR titration; also called hsp/CAF bromodomain; bromodomain of P/CAF
B4: P/CAF bromodomain Tyr760Ala mutant, Q92831 719-832 (protein)
chain: B1 chain with Y42A, A84Y
modifications: here or on the partner: acetyl-lysine (AcK) at Lys8
B5: P/CAF bromodomain Tyr809Ala mutant (other)
chain: B1 chain with A84Y, Y91A
notes: Point mutant of the P/CAF bromodomain made by site-directed mutagenesis
B6: P/CAF bromodomain Tyr809Ala mutant (other)
chain: B1 chain with A84Y, Y91A
notes: Made by site-directed mutagenesis of the wild-type bromodomain construct

What was measured:
[1] = biological target: T1, lysine-acetylated histone H4 peptide SGRGKGG-AcK-GLGK; assay: NMR titration, 15N-HSQC chemical shift changes against ligand concentration; settings: remark: other sources report otherwise
T1 chain: SGRGKGGKGLGK

[2] = biological target: T2, lysine-acetylated histone H4 peptide SGRGKGG-AcK-GLGK; assay: as above
T2 construct: also called H4 AcK-Peptide; AcK peptide
T2 peptide: SGRGKGGK(Ac)GLGK

[3] = biological target: T2, lysine-acetylated histone H4 peptide …; assay: NMR titration, 15N-HSQC chemical shift changes
[4] = biological target: T3, lysine-acetylated histone H4 peptide SGRGKGG-AcK-GLGK; assay: NMR titration, 15N-HSQC
T3 construct: also called AcK peptide; AcK-containing H4 peptide
T3 peptide: SGRGKGGK(Ac)GLGK

Row | Binder | Kd [1] | also measured
1 | B1 | > 10 mM | 
2 | B2 | > 10 mM | 
3 | B3 |  | Kd [2]: 0.346 mM
4 | B4 | > 10 mM | 
5 | B5 |  | binding result [3]: no binding
6 | B6 |  | binding result [4]: no binding
